Laboratory results reported in patent US20200262869A1, “PEPTIDE ANTIBIOTIC COMPLEXES AND METHODS OF USE THEREOF” (GENENTECH, INC., priority 2017, published 2020).
Values after ≈ are worked out from the molar mass of the structure shown.

How the values were obtained:
[1] = test system: MDR K. pneumoniae CDC 0106; test: MIC against MDR clinical isolate; assay type: cell-based
Experimental: (§1) Minimum Inhibitory Concentration (MIC). MICs were determined by performing two-fold serial dilutions of compound in Mueller Hinton II cation-adjusted broth to a final volume of 0.1 m1 in round-bottom 96-well assay plates (Corning Life Sciences No 3788). Each well was inoculated with 5×10^5 CFU/ml and incubated at 37° C. without agitation for 18 hours. Plates were scored by eye, and the lowest compound concentration preventing visible growth was determined to be the MIC.

[2] = target: full length recombinant LepB from E. coli (E. coli) (UniProt P00803); test: kinetic enzyme assay, full-length LepB in detergent micelle, fluorogenic substrate Dabcyl-DAP-PAKAAE-Edans (SEQ ID NO: 6), 2-step irreversible binding model (Dynafit)
[3] = target: LepB V149(VVGLP) (E. coli ATCC 25922) (E. coli) (UniProt P00803); test: cell-based or functional assay
[4] = target: LepB P88L (E. coli ATCC 25922) (E. coli) (UniProt P00803); test: cell-based or functional assay
[5] = target: LepB V133F (E. coli ATCC 25922) (E. coli) (UniProt P00803); test: cell-based or functional assay
[6] = target: LepB P88T (E. coli ATCC 25922) (E. coli) (UniProt P00803); test: cell-based or functional assay
[7] = target: LepB F85S (E. coli ATCC 25922) (E. coli) (UniProt P00803); test: cell-based or functional assay
[8] = target: LepB P88Q (E. coli ATCC 25922) (E. coli) (UniProt P00803); test: cell-based or functional assay
[9] = target: LepB E83K (E. coli ATCC 25922) (E. coli) (UniProt P00803); test: cell-based or functional assay
[10] = target: LepB P88R (E. coli ATCC 25922) (E. coli) (UniProt P00803); test: cell-based or functional assay
[11] = target: LepB L142R (E. coli ATCC 25922) (E. coli) (UniProt P00803); test: cell-based or functional assay
[12] = target: LepB D143Y (E. coli ATCC 25922) (E. coli) (UniProt P00803); test: cell-based or functional assay
[13] = target: LepB A297V (E. coli ATCC 25922) (E. coli) (UniProt P00803); test: cell-based or functional assay
[14] = target: LepB in E. coli K-12 MG1655 (E. coli) (UniProt P00803); test: cell-based or functional assay
K. pneumoniae ATCC 43816 = test: MIC, broth microdilution; assay type: cell-based; conditions: K. pneumoniae ATCC 43816
Experimental: as §1

S. marcescens CDC4385-74 = test: MIC, broth microdilution; assay type: cell-based
Experimental: as §1

C. werkmanii ATCC 51114 = test: MIC, broth microdilution; assay type: cell-based
Experimental: as §1

A. baumannii ATCC 17978 = test: MIC, broth microdilution; assay type: cell-based
Experimental: as §1

E. cloacae ATCC 13407 = test: MIC, broth microdilution; assay type: cell-based
Experimental: as §1

P. aeruginosa ATCC 27853 = test: MIC, broth microdilution; assay type: cell-based
Experimental: as §1

E. aerogenes ATCC 13408 = test: MIC, broth microdilution; assay type: cell-based
Experimental: as §1

E. coli ATCC 25922 = test: MIC, broth microdilution; assay type: cell-based; conditions: E. coli ATCC 25922
Experimental: as §1

With C[C@H]1COc2c(N3CCN(C)CC3)c(F)cc3c(=O)c(C(=O)O)cn1c23 [Levofloxacin] the MIC ([1]; Klebsiella pneumoniae) was > 64 mg/L.

In the case of Gentamicin, the MIC ([1]; MDR K. pneumoniae CDC 0106) is reported as >64 mg/L.

Compound G0775 (peptide) has a kinact [2] of 0.0007 s⁻¹, a Fold MIC Increase [3] of 128 fold and a Fold MIC Increase [4] of 16 fold. The Fold MIC Increase [5] was 16 fold, the Fold MIC Increase [6] was 4 fold and the Fold MIC Increase [7] was 8 fold. For the same compound, the Fold MIC Increase [8] was 4 fold, the Fold MIC Increase [9] was 16 fold and the Fold MIC Increase [10] was 16 fold. It also gave a Fold MIC Increase [11] of 8 fold, a Fold MIC Increase [12] of 8 fold and a Fold MIC Increase [13] of 4 fold. For the same compound, the G0775 MIC (µg/ml), MG 1655 - LepB High (Increase LepB expression level) [14] was 1 µg/mL, the G0775 MIC (µg/ml), MG 1655 - LepB Low (Reduced LepB expression level) [14] was 0.008 µg/mL and the G0775 MIC (µg/ml), MG1655 WT [14] was 0.125 µg/mL.

With CCCCCCCCCCCCCCCC(=O)N(C)[C@H](CO)C(=O)N[C@H](C)C(=O)NCC(=O)N(C)[C@@H]1C(=O)N[C@@H](C)C(=O)N[C@H](C(=O)O)Cc2ccc(O)c(c2)-c2cc1ccc2O [Arylomycin A-C16, reference compound] the MIC (K. pneumoniae ATCC 43816) was >64 mg/L, the MIC (S. marcescens CDC4385-74) was >64 mg/L and the MIC (C. werkmanii ATCC 51114) was >64 mg/L. The MIC (A. baumannii ATCC 17978) was >64 mg/L, the MIC (E. cloacae ATCC 13407) was >64 mg/L and the MIC (P. aeruginosa ATCC 27853) was >64 mg/L. For the same compound, the MIC (E. aerogenes ATCC 13408) was >64 mg/L and the MIC (E. coli ATCC 25922) was >64 mg/L.

Work on Colistin yielded an MIC ([1]; MDR K. pneumoniae CDC 0106) of 16 mg/L.

In the case of C[C@@H](O)[C@H]1C(=O)N2C(C(=O)O)=C(S[C@@H]3CN[C@H](C(=O)N(C)C)C3)[C@H](C)[C@H]12 [Meropenem], the MIC ([1]; Klebsiella pneumoniae) is reported as > 64 mg/L.

Work on CN(C)c1cc(NC(=O)CNC(C)(C)C)c(O)c2c1C[C@H]1C[C@H]3[C@H](N(C)C)C(O)=C(C(N)=O)C(=O)[C@@]3(O)C(O)=C1C2=O [Tigecycline] yielded an MIC ([1]; Klebsiella pneumoniae) of 2 mg/L (≈ 3.41 µM).
